From the supplement of paper PMC7877785
± gives the uncertainty stated by the source.

Experiment: self-splicing fitness, log relative to wild type (ln ratio); higher = more splicing; Tetrahymena group I intron in knt gene, E. coli kanamycin selection, DiMSum; sequences stand for … in CUCUCU…GGAGGGAAAAGUUAUCAGGCAUGCACCUGGUAGCUAGUCUUUAAACCAAUAGAUUGCAUCGGUUUAAAAGGCAAGACCGUCAAAUUGCGGGAAAGGGGUCAACAGCCGUUCAGUACCAAGUCUCAGGGGAAACUUUGAGAUGGCCUUGCAAAGGGUAUGGUAAUAAGCUGACGGACAUGGUCCUAACCACGCAGCCAAGUCCUAAGUCAACAGAUCUUCUGUUGAUAUGGAUGCAGUUCACAGACUAAAUGUCGGUCGGGGAAGAUGUAUUCUUCUCAUAAGAUAUAGUCGGACCUCUCCUUAAUGGGAGCUAGCGGAUGAAGUGAUGCAACACUGGAGCCGCUGGGAACUAAUUUGUAUGCGAAAGUAUAUUGAUUAGUUUUGGAGUACUCGUGGUCG
In short: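 Six replicate transformations of E. coli BL21(DE3) with a pET-22b(+) library were grown overnight at 37°C or 30°C. The library randomised all eight P1ex-region intron nucleotides, the intron lying in the knt kanamycin-resistance gene, and plates were LB agar with or without 25 μg/mL kanamycin plus 100 μg/mL carbenicillin, 50 μM IPTG and 0.2% rhamnose. Pooled colonies were amplicon-sequenced on an Illumina HiSeq 2500, and fitness is the DiMSum error-weighted combination of wild-type-normalised replicate fold changes, kanamycin versus none.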

Sequence	self-splicing fitness (ln) (37 °C)	self-splicing fitness (ln) (30 °C)
ACGGAGCAAUAUUACGGCAG	-1.07 ± 0.44	–
UGUGAGCAAUAUUACGGGAG	-2.04 ± 0.33	-2.52 ± 0.21
UCUAAGCAAUAUUACGCCGG	-0.186 ± 0.15	-1.15 ± 0.13
CAUUAGCAAUAUUACGCACA	-0.408 ± 0.13	-1.01 ± 0.16
CACUAGCAAUAUUACGUUAA	-2.11 ± 0.23	-2.77 ± 0.2
AGGAAGCAAUAUUACGUUGC	-1.29 ± 0.41	-3.23 ± 0.37
CUCCAGCAAUAUUACGGACC	-2.64 ± 0.44	-3.65 ± 0.32
AUUAAGCAAUAUUACGAAAU	-1.44 ± 0.18	-1.35 ± 0.13
CACUAGCAAUAUUACGCCUU	-1.19 ± 0.16	-1.4 ± 0.27
UAGCAGCAAUAUUACGAGCC	-1.9 ± 0.3	-2.62 ± 0.23
CAGUAGCAAUAUUACGGCCG	0.348 ± 0.2	-0.034 ± 0.13
GCCAAGCAAUAUUACGUUGC	-0.915 ± 0.15	-2.91 ± 0.13
GCUGAGCAAUAUUACGAAUC	-0.914 ± 0.17	-1.15 ± 0.12
GUCAAGCAAUAUUACGUUUA	-0.845 ± 0.091	-1.92 ± 0.096
ACCCAGCAAUAUUACGCUUG	-2.43 ± 0.12	-3.38 ± 0.11
CGCCAGCAAUAUUACGGAGU	-2.7 ± 0.13	-3.79 ± 0.12
UGGGAGCAAUAUUACGACAU	-2.9 ± 0.05	-3.84 ± 0.039
UGCUAGCAAUAUUACGAAUC	-3.95 ± 0.29	-3.2 ± 0.15
ACGAAGCAAUAUUACGUCUA	-1.03 ± 0.061	-1.66 ± 0.071
GGAAAGCAAUAUUACGGUCG	-0.296 ± 0.12	0.127 ± 0.092
AGCGAGCAAUAUUACGCAGG	–	-2.43 ± 0.24
CCUCAGCAAUAUUACGGCCU	-1.59 ± 0.29	-4.16 ± 0.39
UCUGAGCAAUAUUACGGGCU	-3.79 ± 0.42	–
ACCCAGCAAUAUUACGCAUA	-1.07 ± 0.066	-1.19 ± 0.061
CGAUAGCAAUAUUACGAAGC	-1.1 ± 0.4	–

Sequence	self-splicing fitness (ln) (37 °C)	self-splicing fitness (ln) (30 °C)
AACAAGCAAUAUUACGUCGG	-1.99 ± 0.15	-2.99 ± 0.14
UUUAAGCAAUAUUACGACAA	-0.304 ± 0.12	-0.409 ± 0.098
GGUGAGCAAUAUUACGCAAG	0.418 ± 0.23	–
UGUAAGCAAUAUUACGGGGA	-1.19 ± 0.25	–
GCGAAGCAAUAUUACGAGGU	-2.76 ± 0.33	-2.98 ± 0.2
GGGUAGCAAUAUUACGGUAA	-0.587 ± 0.1	-1.28 ± 0.12
GAAAAGCAAUAUUACGAUGU	-0.404 ± 0.096	-1.07 ± 0.084
AUCAAGCAAUAUUACGAUUC	-1.25 ± 0.16	-2.14 ± 0.12
GUUAAGCAAUAUUACGGGCG	-0.388 ± 0.11	-1.44 ± 0.1
GUUGAGCAAUAUUACGCAGC	–	-2.23 ± 0.35
GUCUAGCAAUAUUACGAUGU	0.257 ± 0.086	-1.11 ± 0.074
AAUUAGCAAUAUUACGGAAA	-1.72 ± 0.49	-1.83 ± 0.29
ACGUAGCAAUAUUACGGCAG	-2.61 ± 0.33	-4.15 ± 0.28
UCCGAGCAAUAUUACGCUAC	–	-2.97 ± 0.38
GUACAGCAAUAUUACGCCCU	-0.525 ± 0.32	-1.64 ± 0.34
UUCCAGCAAUAUUACGAAAU	-1.58 ± 0.32	-2.78 ± 0.36
UCUGAGCAAUAUUACGUACC	-1.96 ± 0.31	-3.19 ± 0.41
ACUCAGCAAUAUUACGAAAC	-1.43 ± 0.11	-2.62 ± 0.092
UUGCAGCAAUAUUACGUAGC	–	-2.96 ± 0.3
UGCGAGCAAUAUUACGACCU	-0.146 ± 0.2	-0.697 ± 0.18
GUGCAGCAAUAUUACGUUCA	-0.181 ± 0.081	0.191 ± 0.072
GUACAGCAAUAUUACGUUAA	-1.98 ± 0.15	-2.28 ± 0.12
AGCGAGCAAUAUUACGGCUC	-2.06 ± 0.45	-3.06 ± 0.34
CGAUAGCAAUAUUACGAAUC	-3.08 ± 0.28	-3.74 ± 0.22
GCACAGCAAUAUUACGUGAG	0.0342 ± 0.06	0.0789 ± 0.047

Sequence	self-splicing fitness (ln) (37 °C)	self-splicing fitness (ln) (30 °C)
UCCUAGCAAUAUUACGGGGG	-2.59 ± 0.27	-3.69 ± 0.18
UAUUAGCAAUAUUACGUUUA	0.132 ± 0.2	-1.6 ± 0.21
GACGAGCAAUAUUACGCAUC	-2.06 ± 0.36	–
CGGGAGCAAUAUUACGAUAA	-2.57 ± 0.39	-3.16 ± 0.25
UGUGAGCAAUAUUACGAGUA	-2.07 ± 0.29	-2.16 ± 0.21
UCCCAGCAAUAUUACGCAGC	-3.19 ± 0.47	-3.71 ± 0.29
GGGGAGCAAUAUUACGUGCA	-1.08 ± 0.17	-3.32 ± 0.25
AGGAAGCAAUAUUACGGGAG	-2.95 ± 0.37	-2.22 ± 0.19
AAAAAGCAAUAUUACGGACA	-0.0474 ± 0.12	-0.0577 ± 0.11
UUUCAGCAAUAUUACGAGUU	-2.06 ± 0.19	-2.96 ± 0.25
UCAAAGCAAUAUUACGUUUU	-3.18 ± 0.3	-3.28 ± 0.16
UGUAAGCAAUAUUACGGUAC	–	-1.81 ± 0.45
GUUGAGCAAUAUUACGAGAU	-2.81 ± 0.31	-2.7 ± 0.19
GCUAAGCAAUAUUACGUUAG	-2.2 ± 0.28	-2.7 ± 0.28
AUGCAGCAAUAUUACGUGAG	-1.06 ± 0.073	-1.36 ± 0.049
CACCAGCAAUAUUACGAAUC	-0.445 ± 0.18	-4.57 ± 0.31
GAGAAGCAAUAUUACGUUGC	-3.31 ± 0.31	-3.47 ± 0.24
AUCAAGCAAUAUUACGCAUC	-1.64 ± 0.14	-3.97 ± 0.24
CCCCAGCAAUAUUACGGUUG	-1.5 ± 0.1	-2.4 ± 0.087
CUACAGCAAUAUUACGUGGG	-2.61 ± 0.15	-4.01 ± 0.2
UUAUAGCAAUAUUACGUUCG	0.154 ± 0.14	-0.942 ± 0.091
GUCUAGCAAUAUUACGCACG	-1.14 ± 0.18	-1.27 ± 0.18
AUUUAGCAAUAUUACGCGGG	-1.96 ± 0.16	-2.72 ± 0.19
CUCUAGCAAUAUUACGAGGG	-1.45 ± 0.18	-3.28 ± 0.22
GACCAGCAAUAUUACGUACG	-0.696 ± 0.088	-1.34 ± 0.074

Sequence	self-splicing fitness (ln) (37 °C)	self-splicing fitness (ln) (30 °C)
UAUUAGCAAUAUUACGAUAC	-1.13 ± 0.24	–
CAUCAGCAAUAUUACGGAGU	-0.842 ± 0.11	-2.65 ± 0.12
AUCCAGCAAUAUUACGUUGC	-2.86 ± 0.15	-3.87 ± 0.14
GUAGAGCAAUAUUACGUUUU	-1.36 ± 0.18	-2.47 ± 0.16
CAUCAGCAAUAUUACGUUGG	-0.639 ± 0.067	-1.58 ± 0.059
AACCAGCAAUAUUACGGGCU	-1.71 ± 0.1	-2.19 ± 0.093
UUUCAGCAAUAUUACGAAUU	-0.87 ± 0.12	-1.67 ± 0.081
ACUGAGCAAUAUUACGAAAU	-1.72 ± 0.22	-2.94 ± 0.24
UGAAAGCAAUAUUACGCAUC	-3.14 ± 0.28	–
AUAGAGCAAUAUUACGUGGG	-1.79 ± 0.32	-3.77 ± 0.31
AAACAGCAAUAUUACGCAUC	-2.07 ± 0.11	-2.82 ± 0.13
UUCAAGCAAUAUUACGUUCG	-1.44 ± 0.12	-1.96 ± 0.12
UAUCAGCAAUAUUACGUGUU	-2.83 ± 0.12	-3.36 ± 0.14
AUGCAGCAAUAUUACGGUUA	-0.0917 ± 0.071	-1.11 ± 0.079
AGGAAGCAAUAUUACGACGA	-0.0243 ± 0.13	-0.678 ± 0.092
UCUUAGCAAUAUUACGUUUG	-2.48 ± 0.27	-3.07 ± 0.17
CCGGAGCAAUAUUACGUGUU	-2.01 ± 0.19	-3.46 ± 0.24
GGUAAGCAAUAUUACGAAUA	-0.561 ± 0.27	-1.25 ± 0.26
CUGAAGCAAUAUUACGAAGU	-2.77 ± 0.41	-3.58 ± 0.2
GUCUAGCAAUAUUACGAGUA	-1.39 ± 0.22	-1.19 ± 0.21
ACGAAGCAAUAUUACGGGUU	-2.58 ± 0.14	-3.63 ± 0.15
AUGCAGCAAUAUUACGUCGA	-0.738 ± 0.11	-1.61 ± 0.09
GAAGAGCAAUAUUACGCAAU	-1.65 ± 0.13	-3.87 ± 0.2
AUGGAGCAAUAUUACGAGGU	-3.38 ± 0.31	-2.74 ± 0.2
